For assay [1], the target named is T1, Human IL-18BP (amino acids 31-194), biotinylated (human, UniProt O95998 31-194, biotin on the AviTag (BirA ligase) where used biotinylated).
T1 construct: Soluble decoy receptor; also called hIL-18BP; recombinant IL-18BP
T1 sequence: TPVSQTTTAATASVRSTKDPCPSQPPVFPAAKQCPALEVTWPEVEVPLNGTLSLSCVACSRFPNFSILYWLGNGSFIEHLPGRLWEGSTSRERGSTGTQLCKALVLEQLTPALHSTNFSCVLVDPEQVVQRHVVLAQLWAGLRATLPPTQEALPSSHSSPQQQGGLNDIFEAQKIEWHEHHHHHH
Description: on-yeast binding isotherms; KD for IL-18BP over KD for IL-18Rα.

The target in assay [2] is T1, Human IL-18BP (amino acids 31-194), …. Put plainly: on-yeast binding isotherm (flow cytometry); members per FIG. 5A legend. As to the method: (§1) Individual colonies of IL-18 yeast were grown overnight at 30° C. in SDCAA liquid media and induced in SGCAA liquid media for 1 day at 20° C. IL-18 display levels on yeast were verified by flow cytometry using an anti-cMyc tag antibody (anti-myc-PE; Cell Signaling Technologies). Receptor staining with biotinylated IL-18Rα (with or without IL-18R β) or biotinylated IL-18BP was performed in PBS supplemented with 0.5% BSA and 2 mM EDTA (PBE) on ice. All analysis was performed on a Sony SA3800 flow cytometer.
(§2) To additionally characterize the receptor binding activities of the DR-IL-18 variants, the cytokines were expressed recombinantly and surface plasmon resonance for IL-18Rα and IL-18BP was performed (see FIG. 5B for representative traces).

Assay [3] has the same target. Put plainly: SPR; KD for IL-18BP over KD for IL-18Rα. As for the experimental part: (§3) Experiments were conducted using a Biacore T100 and carried out at 25° C. Biotinylated IL-18Rα or IL-18BP were immobilized onto a Biacore biotin capture chip (Series S CAP sensor chip, GE Healthcare) to yield an Rmax of ˜50 RU (IL-18Rα) or ˜10 RU (IL-18BP). Measurements were made with serial dilutions of the IL-18 variants in HEPES buffered Saline-P+buffer (10 mM HEPES pH 7.4, 150 mM NaCl, 0.005% surfactant P20). The surface was regenerated by three 60-sec injections of regeneration buffer (3/4 (v/v) 8M guanidine hydrochloride with 1/4 (v/v) 1M sodium hydroxide). Experiments were performed in multiple channels simultaneously for increased observations. All data were analyzed with the Biacore T100 evaluation software version 2.0 with a 1:1 Langmuir binding model.
as §2

For assay [4] the target is unchanged. Description: on-yeast binding isotherms; KD ratio relative to WT IL-18.
The target is the same in assay [5]. Description: SPR, single-cycle injections of 1.5, 4.5, 13.5, 40.5 and 121.5 nM over immobilized biotinylated hIL-18BP; the sheet prints two constants, KD1 and KD2 (KD2 = 15.2 nM is the value in the text). As for the experimental part: (§4) By contrast, very little binding is observed with the same variants and hIL-18BP (right).
as §3
A general note: In SPR one partner is held on a chip, and binding of the other changes the refractive index at the surface.

The target is the same in assay [6]. Description: on-yeast binding isotherm (flow cytometry), drawn summary table, column IL18BP (KD). As for the experimental part:
as §1
A general note: Flow cytometry measures light scatter and fluorescence of single cells or particles in a stream.

In assay [7] the target is T2, Human IL-18Rα ectodomain (amino acids 19-329), biotinylated (human, UniProt Q13478 19-329, biotin on the AviTag (BirA ligase)).
T2 construct: range 19-329; Secreted from insect cells (gp67 signal peptide removed); also called hIL-18Rα; hIL18Rα
T2 sequence: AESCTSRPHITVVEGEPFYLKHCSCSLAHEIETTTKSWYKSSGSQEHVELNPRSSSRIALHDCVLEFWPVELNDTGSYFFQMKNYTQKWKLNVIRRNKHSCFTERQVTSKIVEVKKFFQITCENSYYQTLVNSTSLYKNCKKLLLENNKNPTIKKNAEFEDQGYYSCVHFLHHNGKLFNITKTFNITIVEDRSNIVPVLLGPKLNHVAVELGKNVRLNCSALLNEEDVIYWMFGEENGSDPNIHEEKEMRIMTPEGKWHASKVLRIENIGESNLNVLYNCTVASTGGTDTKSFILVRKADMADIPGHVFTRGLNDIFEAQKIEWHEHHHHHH
Put plainly: SPR (Biacore T100), receptor captured via biotin, IL-18 as analyte. As to the method: as §3, §2

The target of assay [8] is T1, Human IL-18BP (amino acids 31-194), …. Put plainly: SPR, immobilized biotinylated hIL-18BP, representative sensorgram FIG. 5B; representative sensorgram, FIG. 5B; single run, not the average. As to the method:
as §4, §3

For assay [9] the target is unchanged. Description: SPR; KD ratio relative to WT IL-18. As for the experimental part: as §3, §2
The target is the same in assay [10]. Put plainly: SPR; KD(IL-18BP)/KD(IL-18Rα) normalized to WT IL-18.
In assay [11] the target is T2, Human IL-18Rα ectodomain (amino acids …). Description: on-yeast binding isotherm (flow cytometry), drawn summary table, IL18Rα (KD). In a few lines:
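Yeast displaying IL-18 variants were grown at 30 °C, then induced 1 day at 20 °C, with display checked by anti-myc-PE. Cells were stained on ice with biotinylated IL-18Rα (± IL-18Rβ) or biotinylated IL-18BP in PBS/0.5% BSA/2 mM EDTA. Binding was read by flow cytometry.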

Assay [12] deals with T1, Human IL-18BP (amino acids 31-194), …. Description: SPR; average of 2 studies.
Assay [13] has as its target T2, Human IL-18Rα ectodomain (amino acids …). Put plainly: SPR; average of 2 studies.
In assay [14] the target is T1, Human IL-18BP (amino acids 31-194), …. Put plainly: on-yeast binding isotherm (flow cytometry).
The target is the same in assay [15]. Put plainly: SPR (Biacore T100), IL-18BP captured via biotin, IL-18 as analyte. As to the method:
as §3, §2

For assay [16] the target is unchanged. Put plainly: SPR (Biacore T100), IL-18BP captured via biotin, IL-18 as analyte; SPR, recombinant soluble variant, biotinylated hIL-18BP on the chip. As for the experimental part:
as §3, §2

Assay [17] shares this target. Description: on-yeast binding isotherms; 20 µM used for NBD; yeast-displayed variant; ratio computed with 20 µM put in for NBD.
Assay [18] shares this target. Description: on-yeast binding isotherms; KD ratio relative to WT IL-18; yeast-displayed variant; ratio normalized to WT, from the 20 µM placeholder.
The target is the same in assay [19]. Put plainly: SPR; average of 2 studies; SPR, average of 2 studies.
Assay [20] shares this target. Description: SPR; KD ratio relative to WT IL-18; SPR; ratio normalized to WT. As for the experimental part: as §3, §2
The target is the same in assay [21]. Description: SPR; KD for IL-18BP over KD for IL-18Rα; SPR; ratio of two measured KD. As to the method: as §3, §2

Where only a bound is given, the exact number is not on record here.

B1: SEQ ID NO: 34 (human DR-IL-18 variant hCS1) (ligand)
chain: YFGKLESKLSVIRNLNDQVLFIDQGNRPLFEDMTDSDCRDNAPRTIFIISTYKDSQPRGKAVTISVKCEKISTLSCENKIISFKEMNPPDNIKDTKSDIIFFQRDVPGHKHKMQFESSSYEGYFLACEKERDLFKLILKKEDELGDRSIMFTVQNED
notes: Engineered variant
By EC50 is commonly meant the concentration that produces a half-maximal response. Higher therefore signals lower potency in that assay. Broadly, the Kd is the free concentration of one partner at which half of the binding sites on the other are occupied at equilibrium, for simple one-to-one binding. In the case of B1, the “KD ratio IL-18BP/IL-18Rα” value was found to be 300 in [1] and 2.41 in assay [3]. Moreover, the EC50 in assay [2] is more than 1000 nM. Moreover, the “Dissociation Constant Ratio normalized to WT IL-18” value was 1020 in assay [4] and 3720 in [9]. Moreover, in assay [5], the “KD1 (first of two fitted dissociation constants)” value worked out at 36.7 nM. Also, the Kd is 710 nM in [6]; 8.05 nM in assay [7]; 15.2 nM in assay [8]; 146 nM in [11]; 11.8 nM in assay [12]; 8 nM in assay [13]. The figures for the Kd in assay [14] and in assay [15] were 19300 nM and 19.4 nM, respectively. Also, the “IL-18 BP:Rα Dissociation Constant Ratio” value in [10] was determined as 3020.

B2: SEQ ID NO: 37 (human DR-IL-18 variant hCS4) (ligand)
chain: RFGKLESKLSVIRNLNDQVLFIDQGNRPLFEDMTDSDCRDNAPRTIFIISTYRDSQPRGKAVTISVKCEKISTLSCENKIISFKEMNPPDNIKDTKSDIIFFQRNVPGHKYKMQFESSSYEGYFLACEKERDLFKLILKKEDELGDRSIMFTVQNED
notes: Engineered variant
As to B2, the EC50 in assay [2] is more than 1000 nM. The Kd amounted to 183 nM in [16], 4.38 nM in assay [7], 121 nM in [19] and 7.7 nM in [13]. Besides, the results for the “KD ratio IL-18BP/IL-18Rα” value in [17] and in [21] were more than 125 and 41.8, respectively. For the same molecule, the “Dissociation Constant Ratio normalized to WT IL-18” value in assay [18] is more than 424; in assay [20], 64500. Besides, the “IL-18 BP:Rα Dissociation Constant Ratio” value in [10] was determined as 32200.

The values are drawn from patent US20230277625A1 (SIMCHA IL 18, published 2023).
